2 molecules from patent US20130216549A1 (NOVLMMUNE S A, published 2013) can be followed below.

In experiment [1] the target is T1, recombinant human IP-10 (Peprotech) (human, UniProt P02778 22-98).
T1 sequence: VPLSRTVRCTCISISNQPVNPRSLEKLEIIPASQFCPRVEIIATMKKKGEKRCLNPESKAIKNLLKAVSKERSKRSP
The experiment is described as follows: cell-based or functional assay.

Experiment [2] deals with T2, NusA-cynomolgus IP-10 fusion protein (cynomolgus, UniProt Q8MIZ1 22-98 (rhesus entry)).
T2 construct: junction and C-terminal AviTag not spelled out
T2 sequence: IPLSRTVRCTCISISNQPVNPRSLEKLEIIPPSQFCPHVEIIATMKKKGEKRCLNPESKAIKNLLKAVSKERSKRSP
The experiment is described as follows: capture ELISA: NI-0801 coated, NusA fusion protein titrated (CK Conc [M]), detected with anti-NusA antibody, fluorescence. The text has this: (§1) Briefly, IP-10 cloned from cDNA isolated from mouse, rat, rabbit and cynomolgus as well as a panel of human chemokines was expressed and purified as described in Example 1.

Experiment [3] addresses T3, NusA-rat IP-10 fusion protein (rat, UniProt P48973 22-98).
T3 chain: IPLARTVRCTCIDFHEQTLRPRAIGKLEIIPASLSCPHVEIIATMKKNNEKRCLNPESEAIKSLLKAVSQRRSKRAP
The experiment is described as follows: capture ELISA: NI-0801 coated, NusA fusion protein titrated, detected with anti-NusA antibody, fluorescence.
Description: as §1

B1: CC21R3P1_A2 (scFv format) (scFv, V domains shown)
VH: QLVESGGGLIQPGGSLRLSCAASGFSVSDTYMNWVRQAPGKGLEWVSSIYSDDSTYYADSVKGRFTISRDNSKNTLFLQINSLRAEDTAVYYCARDKEYVTSTGGAYYYFYYMDVWGQGTLVTVSS
VL: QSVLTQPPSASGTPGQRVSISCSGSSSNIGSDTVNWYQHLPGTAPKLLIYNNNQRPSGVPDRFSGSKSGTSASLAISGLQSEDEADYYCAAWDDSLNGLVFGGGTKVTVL
In the case of B1, in experiment [1], the “Calcium flux IC50 (nM); 10 nM hIP-10” value was 36 nM and the “Chemotaxis IC50 (nM); 1 nM hIP-10” value was 7 nM.

B2: NI-0801 (IgG1-formatted) (antibody, V domains shown)
VH: QVQLVESGGGVVQPGRSLRLSCAASGFTFSNSGIHWVRQAPGKGLEWVAVISYDGSNKYYADSVKGRFTISRDNSKNTLYLQMNSLRAEDTAVYYCARLRDNAEYTDYWGQGTLVTVSS
VL: NFMLTQPHSVSESPGKTVTISCTGSGGSIASNYVQWYQQRPGSSPTTVIYEDNQRPSGVPDRFSGSIDSSSNSASLTISGLKTEDEADYYCQSYDPLPVWVFGGGTKLTVLG
The term EC50 (read off the curve) denotes the concentration giving half of the maximal effect. A low value points to an effect from little substance. As for B2, the half-maximal effective concentration (EC50 (read off the curve)) in experiment [2] is roughly 1 nM. The binding result in experiment [3] is on record as “no binding (tested: about 2.5e-7 M)”.
